Experimental data as given in US20040175758.

How the values were obtained:
[1] = biological target: T1, Q4, synthetic peptide Ac-EKTAGKPILF-OH
T1 chain: EKTAGKPILF

[2] = biological target: Bovine recombinant PrP (Prionics), P10279
Sequence of Bovine recombinant PrP (Prionics), P10279 (P10279 25-242): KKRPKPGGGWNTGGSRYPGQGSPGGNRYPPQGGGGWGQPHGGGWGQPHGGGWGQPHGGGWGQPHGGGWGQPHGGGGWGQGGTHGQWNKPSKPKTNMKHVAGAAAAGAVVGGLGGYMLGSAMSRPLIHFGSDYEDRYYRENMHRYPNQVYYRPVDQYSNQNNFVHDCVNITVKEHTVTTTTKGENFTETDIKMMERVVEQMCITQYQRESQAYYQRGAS

B1: Recombinant FLAG-tagged human GPBP (expressed in yeast, FLAG-affinity purified) (protein)
chain: MSDNQSWNSSGSEEDPETESGPPVERCGVLSKWTNYIHGWQDRWVVLKNNALSYYKSEDETEYGCRGSICLSKAVITPHDFDECRFDISVNDSVWYLRAQDPDHRQQWIDAIEQHKTESGYGSESSLRRHGSMVSLVSGASGYSATSTSSFKKGHSLREKLAEMETFRDILCRQVDTLQKYFDACADAVSKDELQRDKVVEDDEDDFPTTRSDGDFLHSTNGNKEKLFPHVTPKGINGIDFKGEAITFKATTAGILATLSHCIELMVKREDSWQKRLDKETEKKRRTEEAYKNAMTELKKKSHFGGPDYEEGPNSLINEEEFFDAVEAALDRQDKIEEQSQSEKVRLHWPTSLPSGDAFSSVGTHRFVQKPYSRSSSMSSIDLVSASDDVHRFSSQVEEMVQNHMTYSLQDVGGDANWQLVVEEGEMKVYRREVEENGIVLDPLKATHAVKGVTGHEVCNYFWNVDVRNDWETTIENFHVVETLADNAIIIYQTHKRVWPASQRDVLYLSVIRKIPALTENDPETWIVCNFSVDHDSAPLNNRCVRAKINVAMICQTLVSPPEGNQEISRDNILCKITYVANVNPGGWAPASVLRAVAKREYPKFLKRFTSYVQEKTAGKPILF
B1 was tested, and the “GPBP autophosphorylation in vitro” value [1] was “inhibited GPBP autophosphorylation in a more limited manner” and the “in vitro phosphorylation with [γ^32P]-ATP, autoradiography” value [2] was “transferred phosphates to PrP”.
